Measured values published in the RNAGym collection of RNA variant scans (doi:10.7554/elife.90254).

B1: LINE1-full (parent)
chain: UACGUAGGUGGUUUUCCCCUGAUAGUGCUAAGGGGGCCUGGAAGUUUGGACUGGGCAGAGCUCAACACAGCGUGGCAAAGUGGCUGUGGCUAGACUGCCUCUCUGGAUUCCUCGUCACUCAGCAGGGCAUCUCUGAGAGAAAUGCC

Variants of: B1
Assay: self-cleavage, relative activity (ratio to wild type); higher = more cleavage; in vitro, sequencing; the parent is a self-cleaving ribozyme
With UACGUAGGUGGUUUUCCCCAGAUAGUGCUAAGGGGGCCUGGAAGUUUGGACUGGGCAGAGCUUAACACAGCGUGGCAAAGUGGCUGUGGCUAGACUGCCUCUCUGGAUUCCUCGUCACUCAGCAGGGCAUCUCUGAGAGAAAUGCC [U20A C63U] the self-cleavage was 0.45.
With UACGUAGGUGGUUUUCCCUUGAUAGUGCUAAGGGGGCCUGGAAGUUUGGACUGGGCAGAGCUCAACACAGCGUGGCAAAGUGGCUGUGGCUAGACUGCCUCUCUGGAUUCCUCGUCACUCAGCAGGGCAUCUCAGAGAGAAAUGCC [C19U U134A] the self-cleavage was 0.81.
Variant UACGUAGGUGGUUUUCCCUUGAUAGUGCUAAGGGGGCCUGGAAGUUUGGACUGGGCAGAGCUCAACACAGCGUGGCAAAGUGGCUGUGGCUAGACUGCCUCUCUGGAUUCCUCGUCACUCAGCAGGGCAUCUCCGAGAGAAAUGCC [C19U U134C] has a self-cleavage of 1.09.
UACGUAGGUGGUUUUCCCCAGAUAGUGCUAAGGGGGCCUGGAAGUUUGGACUGGGCAGAGCUCAACACAGCGUGGCAAAGUGGCUGUGGCUAGACUGCCUCUCUGGAUUCCUCGUCACUCAGCAGGGCAUCUCUGAGAGUAAUGCC [U20A A140U] gave a self-cleavage of 1.7.
With UACGUAGGUGGUUUUCCCCAGAUAGUGCUAAGGGGGCCUGGAAGUUUGGACUGGGCAGAGCUCAACACAGCGUGGCAAAGUGGCUGUGGCUAGACUGCCUCUCUGGAUUCCUCGUCACUCAGCAGGGCAUCUCUGAGAGGAAUGCC [U20A A140G] the self-cleavage was 1.16.
Variant UACGUAGGUGGUUUUCCCCAGAUAGUGCUAAGGGGGCCUGGAGGUUUGGACUGGGCAGAGCUCAACACAGCGUGGCAAAGUGGCUGUGGCUAGACUGCCUCUCUGGAUUCCUCGUCACUCAGCAGGGCAUCUCUGAGAGAAAUGCC [U20A A43G] has a self-cleavage of 1.12.
Work on UACGUAGGUGGUUUUCCCCAGAUAGUGCUAAGGGGGCCUGGACGUUUGGACUGGGCAGAGCUCAACACAGCGUGGCAAAGUGGCUGUGGCUAGACUGCCUCUCUGGAUUCCUCGUCACUCAGCAGGGCAUCUCUGAGAGAAAUGCC [U20A A43C] yielded a self-cleavage of 0.84.
Work on UACGUAGGUGGUUUUCCCCAGAUAGUGCUAAGGGGGCCUGGAAGUUUGGACUGGGCAGAGCUCAAUACAGCGUGGCAAAGUGGCUGUGGCUAGACUGCCUCUCUGGAUUCCUCGUCACUCAGCAGGGCAUCUCUGAGAGAAAUGCC [U20A C66U] yielded a self-cleavage of 0.02.
Work on UACGUAGGUGGUUUUCCCCAGAUAGUGCUAAGGGGGCCUGGAAGUUUGGACUGGGCAGAGCUCUACACAGCGUGGCAAAGUGGCUGUGGCUAGACUGCCUCUCUGGAUUCCUCGUCACUCAGCAGGGCAUCUCUGAGAGAAAUGCC [U20A A64U] yielded a self-cleavage of 0.36.
In the case of UACGUAGGUGGUUUUCCCCAGAUAGUGCUAAGGGGGCCUGGAAGUUUGGACUGGGCAGAGCUCAACACAGCGUGGCAAAGUGGCUGUGGCUAGACUGCCUCUCUGGGUUCCUCGUCACUCAGCAGGGCAUCUCUGAGAGAAAUGCC [U20A A107G], the self-cleavage is reported as 1.37.
For UACGUAGGUGGUUUUCCCCAGAUAGUGCUAAGGGGGCUUGGAAGUUUGGACUGGGCAGAGCUCAACACAGCGUGGCAAAGUGGCUGUGGCUAGACUGCCUCUCUGGAUUCCUCGUCACUCAGCAGGGCAUCUCUGAGAGAAAUGCC [U20A C38U], the self-cleavage was 0.87.
Work on UACGUAGGUGGUUUUCCCCAGAUAGUGCUAAGGGGGCCUGGGAGUUUGGACUGGGCAGAGCUCAACACAGCGUGGCAAAGUGGCUGUGGCUAGACUGCCUCUCUGGAUUCCUCGUCACUCAGCAGGGCAUCUCUGAGAGAAAUGCC [U20A A42G] yielded a self-cleavage of 1.06.
UACGUAGGUGGUUUUCCCCAGAUAGUGCUAAGGGGGCCUGGAAGUUUGGACUGGGCAGAGCUCAACACGGCGUGGCAAAGUGGCUGUGGCUAGACUGCCUCUCUGGAUUCCUCGUCACUCAGCAGGGCAUCUCUGAGAGAAAUGCC [U20A A69G] gave a self-cleavage of 0.45.
In the case of UACGUAGGUGGUUUUCCCCAGAUAGUGCUAAGGGGGCCUGGAAGUUUGGACUGGGCAGAGCUCAACACAGCGUGGCAAAGUGGCUGUGGCUAGACUGCCUCUCUGGAUUCCUCGUCACUCAGCAGGGCAUCUCUGGGAGAAAUGCC [U20A A136G], the self-cleavage is reported as 0.93.
Work on UACGUAGGUGGUUUUCCCUUGAUAGUGCUAAGGGGGCCUGGAAGUUUGGACUGGGCAGAGCUCAACACAGCGUGGCAAAGUGGCUGUGGCUAGACUGCCUCUCUGGACUCCUCGUCACUCAGCAGGGCAUCUCUGAGAGAAAUGCC [C19U U108C] yielded a self-cleavage of 1.26.
UACGUAGGUGGUUUUCCCUUGAUAGUGCUAAGGGGGCCUGGAAGUUUGGACUGGGCAGAGCUCAACACAGCGUGGCAAAGUGGCUGUGGCUAGACUGCCUCUCUGGAUUCCCCGUCACUCAGCAGGGCAUCUCUGAGAGAAAUGCC [C19U U112C] gave a self-cleavage of 1.13.
In the case of UACGUAGGUGGUUUUCCCUUGAUAGUGCUAAGGGGGCCUGGAAGUUUGGACUGGGCAGAGCUCAACACAGCGUGGCAAAGUGGCUGUGGCUAGACUGCCUCUCUGGAUUCCACGUCACUCAGCAGGGCAUCUCUGAGAGAAAUGCC [C19U U112A], the self-cleavage is reported as 1.06.
For UACGUAGGUGGUUUUCCCCAGAUAGUGCUGAGGGGGCCUGGAAGUUUGGACUGGGCAGAGCUCAACACAGCGUGGCAAAGUGGCUGUGGCUAGACUGCCUCUCUGGAUUCCUCGUCACUCAGCAGGGCAUCUCUGAGAGAAAUGCC [U20A A30G], the self-cleavage was 0.9.
For UACGUAGGUGGUUUUCCCCAGAUAGUGCUAAGGGGGCCUGGAAGUUUGGACUGGGCAGAGCUCAACACAGCGUGGCAAAGUGGCUGUGGCUAGACUGCCUCUCUGGAUUCCUCGUCACUCAGCAGGGCAUCUCUGAGGGAAAUGCC [U20A A138G], the self-cleavage was 1.27.
For UACGUAGGUGGUUUUCCCUUGAUAGUGCUAAGGGGGCCUGGAAGUUUGGACUGGGCAGAGCUCAACACAGCGUGGCAAAGUGGCUGAGGCUAGACUGCCUCUCUGGAUUCCUCGUCACUCAGCAGGGCAUCUCUGAGAGAAAUGCC [C19U U87A], the self-cleavage was 0.09.
Variant UACGUAGGUGGUUUUCCCUUGAUAGUGCUAAGGGGGCCUGGAAGUUUGGACUGGGCAGAGCUCAACACAGCGUGGCAAAGUGGCUGCGGCUAGACUGCCUCUCUGGAUUCCUCGUCACUCAGCAGGGCAUCUCUGAGAGAAAUGCC [C19U U87C] has a self-cleavage of 0.06.
UACGUAGGUGGUUUUCCCCAGAUAGUGCUAAGGGGGCCUGGAAGUUUGGACUGGGCAGAGCUCAACACAGCGUGGCAAAGUGGCUGUGGCUAGACUGCCUCUCUGGAUUCCUCGUCACUCAGCAGGGCAUCUCUGAGAGAGAUGCC [U20A A141G] showed a self-cleavage of 1.43.
Variant UACGUAGGUGGUUUUCCCCAGAUAGUGCUAAGGGGGCCUGGAAGUUUGGACUGGGCAGGGCUCAACACAGCGUGGCAAAGUGGCUGUGGCUAGACUGCCUCUCUGGAUUCCUCGUCACUCAGCAGGGCAUCUCUGAGAGAAAUGCC [U20A A59G] has a self-cleavage of 0.15.
For UACGUAGGUGGUUUUCCCCAGAUAGUGCUAAGGGGGCCUGGAAGUUUGGACUGGGCAGAGCUCAACACAGCGUGGCAAUGUGGCUGUGGCUAGACUGCCUCUCUGGAUUCCUCGUCACUCAGCAGGGCAUCUCUGAGAGAAAUGCC [U20A A79U], the self-cleavage was 1.59.
In the case of UACGUAGGUGGUUUUCCCCAGAUAGUGCUAAGGGGGCCUGGAAGUUUGGACUGGGCAGAGCUCAACACAGCGUGGCAAAGUGGCUGUGGCUAGACUGCCUCUCUGGAUUCCUCGUCACUCAGCGGGGCAUCUCUGAGAGAAAUGCC [U20A A124G], the self-cleavage is reported as 0.76.
Variant UACGUAGGUGGUUUUCCCCAGAUAGUGCUAAGGGGGCCUGGAAGUUUGGACUGGGCAGAGCUCAACACAGCGUGGCAAAGUGGCUGUGGCUAGACUGCCUCUCUGGAUUCCUCGUCACUCAGCUGGGCAUCUCUGAGAGAAAUGCC [U20A A124U] has a self-cleavage of 0.91.
For UACGUAGGUGGUUUUCCCUUGAUAGUGCUAAGGGGGCCUGGAAGUUUGGACUGGGCAGAGCUCAACACAGCGUGGCAAAGUGGCUGUGGCUAGACUGCCUCUCUGGAUUCCUCGUCACUCAGCAGGGCAUCCCUGAGAGAAAUGCC [C19U U132C], the self-cleavage was 0.
In the case of UACGUAGGUGGUUUUCCCCAGAUAGUGCUAAGGGGGCCUGGAAGUUUGGACUGGGCAGAGCUCAACACAGCGUGGCAAAGUGGCUGUGGCUAGGCUGCCUCUCUGGAUUCCUCGUCACUCAGCAGGGCAUCUCUGAGAGAAAUGCC [U20A A94G], the self-cleavage is reported as 0.18.
For UACGUAGGUGGUUUUCCCCAGAUAGUGCUAAGGGGGCCUGGAAGUUUGGGCUGGGCAGAGCUCAACACAGCGUGGCAAAGUGGCUGUGGCUAGACUGCCUCUCUGGAUUCCUCGUCACUCAGCAGGGCAUCUCUGAGAGAAAUGCC [U20A A50G], the self-cleavage was 1.2.
With UACGUAGGUGGUUUUCCCUUGAUAGUGCUAAGGGGGCCUGGAAGUUUGGACUGGGCAGAGCUCAACACAGCGUGGCAAAGCGGCUGUGGCUAGACUGCCUCUCUGGAUUCCUCGUCACUCAGCAGGGCAUCUCUGAGAGAAAUGCC [C19U U81C] the self-cleavage was 1.
UACGUAGGUGGUUUUCCCUUGAUAGUGCUAAGGGGGCCUGGAAGUUUGGACGGGGCAGAGCUCAACACAGCGUGGCAAAGUGGCUGUGGCUAGACUGCCUCUCUGGAUUCCUCGUCACUCAGCAGGGCAUCUCUGAGAGAAAUGCC [C19U U52G] gave a self-cleavage of 0.5.
Variant UACGUAGGUGGUUUUCCCCAGAUAGUGCUAAGGGGGCCUGGAAGUUUGGACUGGGCAGAGCUCAACACAGCGUGGCAGAGUGGCUGUGGCUAGACUGCCUCUCUGGAUUCCUCGUCACUCAGCAGGGCAUCUCUGAGAGAAAUGCC [U20A A78G] has a self-cleavage of 1.39.
In the case of UACGUAGGUGGUUUUCCCUUGAUAGUGCUAAGGGGGCCUGGAAGUUUGGACUGGGCAGAGCCCAACACAGCGUGGCAAAGUGGCUGUGGCUAGACUGCCUCUCUGGAUUCCUCGUCACUCAGCAGGGCAUCUCUGAGAGAAAUGCC [C19U U62C], the self-cleavage is reported as 0.06.
Variant UACGUAGGUGGUUUUCCCCAGAUAGUGCUAAGGGGGCCUGGAAGUUUGGAUUGGGCAGAGCUCAACACAGCGUGGCAAAGUGGCUGUGGCUAGACUGCCUCUCUGGAUUCCUCGUCACUCAGCAGGGCAUCUCUGAGAGAAAUGCC [U20A C51U] has a self-cleavage of 0.77.
Work on UACGUAGGUGGUUUUCCCCAGAUAGUGCUAAGGGGGCCUGGAAGUUUGGAAUGGGCAGAGCUCAACACAGCGUGGCAAAGUGGCUGUGGCUAGACUGCCUCUCUGGAUUCCUCGUCACUCAGCAGGGCAUCUCUGAGAGAAAUGCC [U20A C51A] yielded a self-cleavage of 0.82.
For UACGUAGGUGGUUUUCCCUUGAUAGUGCUAAGGGGGCCUGGAAGUUUGGACUGGGCAGAGCUCAACACAGCGUGGCAAAGUGGCUGUGGCUAGACCGCCUCUCUGGAUUCCUCGUCACUCAGCAGGGCAUCUCUGAGAGAAAUGCC [C19U U96C], the self-cleavage was 0.18.
UACGUAGGUGGUUUUCCCUUGAUAGUGCUAAGGGGGCCUGGAAGUUUGGACUGGGCAGAGCUCAACACAGCGUGGCAAAGUGGCUGUGGCUAGACUGCCUCUCUGGAUUCCUCGCCACUCAGCAGGGCAUCUCUGAGAGAAAUGCC [C19U U115C] gave a self-cleavage of 1.79.
In the case of UACGUAGGUGGUUUUCCCUUGAUAGUGCUAAGGGGGCCUGGAAGUUUGGACUGGGCAGAGCUCAACACAGCGUGGCAAAGUGGCUGUGGCUAGACUGCCUCCCUGGAUUCCUCGUCACUCAGCAGGGCAUCUCUGAGAGAAAUGCC [C19U U102C], the self-cleavage is reported as 0.73.
UACGUAGGUGGUUUUCCCUUGAUAGUGCUAAGGGGGCCUGGAAGUUUGGACUGGGCAGAGCUCAACACAGCGUGGCAAAGUGGCUGUGGCUAGACUGCCUCUCUGGAUUCCUCGUCACCCAGCAGGGCAUCUCUGAGAGAAAUGCC [C19U U119C] gave a self-cleavage of 1.38.
